Test results from paper PMC8429438.

Experiments:
[1] = molecular target: wild-type tau repeat domain (WT tauRD) (human); test: MST; Cy5-labelled wild-type or mutant tau/tauRD titrated with a serial two-fold dilution of DnaJC7 or single DnaJC7 domains; Monolith NT.115; technical triplicates; fit in PALMIST with a 1:1 binding model
[2] = molecular target: P301L tau repeat domain (P301L tauRD) (human); test: as above

- Kd [1]: 2.2 µM
- Kd [2]: 6.2 µM
B1: DnaJC7 (full-length, wild type, recombinant) (natural protein)
chain: MAAAAECDVVMAATEPELLDDQEAKREAETFKEQGNAYYAKKDYNEAYNYYTKAIDMCPKNASYYGNRAATLMMLGRFREALGDAQQSVRLDDSFVRGHLREGKCHLSLGNAMAACRSFQRALELDHKNAQAQQEFKNANAVMEYEKIAETDFEKRDFRKVVFCMDRALEFAPACHRFKILKAECLAMLGRYPEAQSVASDILRMDSTNADALYVRGLCLYYEDCIEKAVQFFVQALRMAPDHEKACIACRNAKALKAKKEDGNKAFKEGNYKLAYELYTEALGIDPNNIKTNAKLYCNRGTVNSKLRKLDDAIEDCTNAVKLDDTYIKAYLRRAQCYMDTEQYEEAVRDYEKVYQTEKTKEHKQLLKNAQLELKKSKRKDYYKILGVDKNASEDEIKKAYRKRALMHHPDRHSGASAEVQKEEEKKFKEVGEAFTILSDPKKKTRYDSGQDLDEEGMNMGDFDPNNIFKAFFGGPGGFSFEASGPGNFFFQFG
